The target in one test is T1, GK-WT (Homo sapiens, UniProt P35557).
T1 construct: GST (cleaved yes); made in house; host or cells: Escherichia coli
T1 sequence (P35557 1-465): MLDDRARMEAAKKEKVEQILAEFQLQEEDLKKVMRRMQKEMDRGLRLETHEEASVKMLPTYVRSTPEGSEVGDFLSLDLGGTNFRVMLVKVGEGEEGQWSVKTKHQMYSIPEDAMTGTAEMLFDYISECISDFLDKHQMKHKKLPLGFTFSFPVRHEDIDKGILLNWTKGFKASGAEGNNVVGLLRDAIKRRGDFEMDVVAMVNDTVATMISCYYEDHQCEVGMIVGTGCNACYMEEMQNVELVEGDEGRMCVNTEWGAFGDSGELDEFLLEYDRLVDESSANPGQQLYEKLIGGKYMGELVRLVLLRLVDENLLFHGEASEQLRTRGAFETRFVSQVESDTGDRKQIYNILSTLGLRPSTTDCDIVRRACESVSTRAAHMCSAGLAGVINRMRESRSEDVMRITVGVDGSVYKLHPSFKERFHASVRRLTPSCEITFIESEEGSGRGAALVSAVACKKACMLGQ
Set-up: method as in ref 4 (a number printed in a supplementary file, which may have a reference list of its own: not looked up in the article's list). To be noted: cited from earlier work.

The subject of a further test is GK (glucokinase). To be noted: cited from earlier work.
The target of a further test is T2, GKRP-P446L (Homo sapiens, UniProt P35557+Q14397, P446L/W167F/W257F/W99R).
T2 construct: FLAG; GST (cleaved yes); made in house; host or cells: Escherichia coli
T2 sequence (Q14397 1-625 P446L): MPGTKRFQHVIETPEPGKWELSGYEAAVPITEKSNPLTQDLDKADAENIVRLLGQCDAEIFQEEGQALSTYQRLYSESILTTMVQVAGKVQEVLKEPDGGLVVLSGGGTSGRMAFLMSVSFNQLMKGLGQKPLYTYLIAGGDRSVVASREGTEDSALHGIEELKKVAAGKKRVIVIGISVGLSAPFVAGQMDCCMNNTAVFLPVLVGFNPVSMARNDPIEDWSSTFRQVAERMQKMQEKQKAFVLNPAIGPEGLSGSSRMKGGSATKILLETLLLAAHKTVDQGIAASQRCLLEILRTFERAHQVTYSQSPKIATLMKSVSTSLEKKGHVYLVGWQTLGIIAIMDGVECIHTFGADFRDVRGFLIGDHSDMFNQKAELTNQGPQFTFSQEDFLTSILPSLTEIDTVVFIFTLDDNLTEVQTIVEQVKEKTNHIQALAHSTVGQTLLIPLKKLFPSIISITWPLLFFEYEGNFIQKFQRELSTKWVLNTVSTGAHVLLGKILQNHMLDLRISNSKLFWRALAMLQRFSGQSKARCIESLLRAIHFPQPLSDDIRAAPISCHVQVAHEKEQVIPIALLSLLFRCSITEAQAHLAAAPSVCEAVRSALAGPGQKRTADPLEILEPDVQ
T2 sequence (P35557 1-465 W99R/W167F/W257F): T1 sequence (P35557 1-465) with W99R, W167F, W257F
As to the kind of experiment: Titration of GKRP-P446L with GK-W99R/W167F/W257F (GK–GKRP complex assembly) by TF. Format: binding. Set-up: ΔF: scale not given here. The settings on record: for Kd: read-out: S0.5 of GK. Here is the method: Spectra were measured with a Fluorolog-3-21 Jobin-Yvon Spex Instrument SA equipped with a 450 W Xenon lamp for excitation and a cooled R2658P Hamamatsu photomultiplier tube for detection. For all measurements, 90° geometry was employed and 295 nm excitation wavelengths were used to observe fluorescence emission in the 300–500 nm range. For TF, spectra slit width was set to provide a bandpath of 3 nm for excitation and 3 nm for emission. Spectra were corrected for instrumental response using Spex instrument software. A thermostatically controlled cell holder maintained sample temperature at 20°C. A thermocoupler was used to measure sample temperature. The buffer used contained 20 mM phosphate, 50 mM KCl, 1 mM EDTA and 1 mM DTT (pH 7.2).
Fluorescence data were obtained via the stepwise addition of the appropriate amount of non-fluorescent GK-W99R/W167F/W257F to GKRP in a fluorescence cuvette. […] The change in GKRP protein fluorescence during titration was also measured using time-dependent scans. A manual procedure was used such that a typical titration with 10–12 additions required 20–25 min to perform. The same buffer as described above was routinely used unless stated otherwise. The bandpath was 0.5 nm at 295 nm for excitation and 12 nm at 340 nm for emission. […] For some graphical presentations the linear form of the Hill equation was used: log[F/(Fsat−F)]=H log x−H log KD [46].

Where [1] appears, read: GK titration with 20 μM GKA, 20°C.
The mark [2] stands for this setting: GK titration with 500 μM F1P, 20°C.
Setting [3] is: GK titration with 500 μM F6P, sigmoidal fit, 20°C.
[4] abbreviates: GK titration with 500 μM F6P, simple saturation fit (H = 1).
Setting [5] is: GK titration with 100 mM D-glucose and 20 μM GKA, 20°C.
Setting [6] is: GK titration with 100 mM D-glucose and 500 μM F1P, 20°C.
Setting [7] is: GK titration with 100 mM D-glucose and 500 μM F6P, 20°C.
Where [8] appears, read: GK titration with 100 mM D-glucose, 20°C.
Setting [9] is: GK titration, no further agent, sigmoidal fit, 20°C.
[10] abbreviates: GK titration, no further agent, simple saturation fit (H = 1).

Changes are numbered by the printed parent chain. Names and notes keep the numbering of the source. Like-named read-outs stand apart in the source and are kept apart here.

With `OC[C@H]1OC(O)[C@H](O)[C@@H](O)[C@@H]1O` (stereo partly drawn) [D-Glucose, D-glucose], at GK-WT, the “H (glucose)” value is recorded as 1.77 and the “glucose S0.5” value was 7.5 mM. Besides, in the test on GK (glucokinase), the “Hill coefficient of GK with respect to glucose” value is recorded as “approximately 1.7” and the “affinity of GK for glucose” value is given as “approximately 7.5 mM”.

B1: GK-W99R/W167F/W257F: tryptophan residue-free, non-fluorescent recombinant human β-cell GK made for the present study (protein)
chain: T1 sequence (P35557 1-465) with W99R, W167F, W257F
modifications: left off: GST, end not stated, cleaved
notes: tryptophan residue-free, non-fluorescent recombinant human β-cell GK made for the present study
B1: the H with GKRP-P446L (setting [1]) is reported as 2.17; in the test with GKRP-P446L (setting [2]), 2.84; with GKRP-P446L (setting [3]), 1.31; with GKRP-P446L (GK titration with 500 μM F6P, simple saturation fit), 1; with GKRP-P446L (setting [5]) it was 2.68; in the test with GKRP-P446L (setting [6]), 2.77. Besides, the H is 2.45 in the test with GKRP-P446L (setting [7]); 2.94 in the test with GKRP-P446L (setting [8]); 1.86 with GKRP-P446L (setting [9]); 1 with GKRP-P446L (GK titration, no further agent, simple saturation fit). Moreover, the ΔF with GKRP-P446L (setting [1]) is given as 0.43; with GKRP-P446L (setting [2]) it was 0.41; in the test with GKRP-P446L (setting [3]), 0.44; with GKRP-P446L (setting [4]), 0.55; with GKRP-P446L (setting [5]) it was 0.42; with GKRP-P446L (setting [6]) it was 0.44. In addition, the ΔF with GKRP-P446L (setting [7]) stood at 0.42; with GKRP-P446L (setting [8]), 0.43; with GKRP-P446L (setting [9]), 0.44; with GKRP-P446L (setting [10]), 0.82. Moreover, the Kd amounted to 2590 nM with GKRP-P446L (setting [1]); 2950 nM with GKRP-P446L (setting [2]); 1660 nM with GKRP-P446L (setting [3]); 2450 nM in the test with GKRP-P446L (setting [4]); 3550 nM in the test with GKRP-P446L (setting [5]); 2970 nM with GKRP-P446L (setting [6]). Further, the Kd in the test with GKRP-P446L (setting [7]) turned out to be 2840 nM; in the test with GKRP-P446L (setting [8]), 3380 nM; in the test with GKRP-P446L (setting [9]), 2050 nM; in the test with GKRP-P446L (setting [10]), 5230 nM. The “maximal ΔTF value of GKRP-P446L” value with GKRP-P446L (range under all conditions tested) is given as 0.41–0.44. The “increase of the TF of GKRP-P446L” value with GKRP-P446L (saturating GK (5 μM), 0.3 μM GKRP) amounted to 44%.
